Consider 4 substances from patent publication US20200024330A1.

Holding throughout (experiment): cell-based or functional assay
For assay [1], the target named is HIV-1 Env of pseudovirus SC422661.8 (Acute), clade B (HIV-1).
The target in assay [2] is HIV-1 MGRM-C-023 Env (HIV-1).
Assay [3] deals with HIV-1 93IN905 envelope protein (Env) on pseudovirus (HIV-1).
Assay [4] deals with HIV-1 MGRM-C-024 Env (HIV-1).
The target in assay [5] is HIV-1 Env of isolate MGRM-G-028 (clade G pseudovirus) (HIV-1).
For assay [6], the target named is HIV-1 Env of pseudovirus 92BR020, clade B (HIV-1).
Assay [7] has as its target HIV-1 Env of isolate MGRM-D-014 (clade D) (HIV-1).
In assay [8] the target is HIV-1 JRCSF envelope glycoprotein (Env) on pseudovirus (HIV-1).
Assay [9] deals with HIV-1 92UG031 envelope glycoprotein (Env) (HIV-1).
Assay [10] deals with HIV-1 MGRM-F1-021 Env (pseudovirus) (HIV-1).
In assay [11] the target is HIV-1 MGRM-A-013 envelope glycoprotein (Env) (HIV-1).
The target in assay [12] is HIV-1 92RW020 envelope glycoprotein (Env) (HIV-1).
Assay [13] addresses HIV-1 Env of isolate MGRM-D-022 (clade D) (HIV-1).
Assay [14] concerns the target HIV-1 JR-CSF envelope protein (Env) on pseudovirus (HIV-1) (UniProt P20871).
Assay [15] addresses HIV-1 98CN009 envelope glycoprotein (Env) on pseudovirus (HIV-1).

Chain of 1443_C16 (PG16) (TCN-116) (antibody) (VH): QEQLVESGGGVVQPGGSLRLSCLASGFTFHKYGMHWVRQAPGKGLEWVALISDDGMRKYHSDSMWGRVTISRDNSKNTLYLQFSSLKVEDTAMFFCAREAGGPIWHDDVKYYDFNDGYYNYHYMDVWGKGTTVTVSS
Chain of 1443_C16 (PG16) (TCN-116) (antibody) (VL): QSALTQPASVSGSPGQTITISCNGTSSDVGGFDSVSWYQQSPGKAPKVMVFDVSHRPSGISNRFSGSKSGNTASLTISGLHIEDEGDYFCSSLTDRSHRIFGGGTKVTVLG

As usually defined, the IC50 is the concentration at which inhibition is half-maximal. High values mean lower potency, low ones higher potency. Take 2G12 (antibody): the IC50 (µg/ml), pseudovirus neutralization in assay [1] was 0.84 µg/mL; in [5] it was 28.2 µg/mL; in assay [6] it was 4.84 µg/mL; in assay [7], greater than 50 µg/mL; in [9], greater than 50 µg/mL; in [10] it was 14.1 µg/mL. Further, the IC50 (µg/ml), pseudovirus neutralization in [11] is greater than 50 µg/mL; in assay [12], 0.48 µg/mL; in assay [13], greater than 50 µg/mL; in assay [15] it was greater than 50 µg/mL. The half-inhibitory concentration (IC50) in assay [2] and in assay [4] was greater than 50 µg/mL in each case. Further, the figures for the neutralization IC50 in assay [3] and in assay [14] were greater than 50 µg/mL and 0.66 µg/mL, respectively. The substance further yielded an IC90 (pseudovirus neutralization) in assay [8] of 5.38 µg/mL.

4E10 (antibody): the IC50 (µg/ml), pseudovirus neutralization was 6.35 µg/mL in assay [1]; 6.32 µg/mL in [5]; greater than 50 µg/mL in assay [6]; 3.24 µg/mL in [7]; 4.94 µg/mL in assay [9]; 1.87 µg/mL in [10]. Also, the IC50 (µg/ml), pseudovirus neutralization in [11] was 1.46 µg/mL; in [12] it was 4.54 µg/mL; in assay [13], 16.9 µg/mL; in assay [15], 2.46 µg/mL. The 50% inhibitory concentration (IC50) in [2] is 1.95 µg/mL; in assay [4], 22.6 µg/mL. In addition, the figures for the neutralization IC50 in [3] and in [14] were 1.55 µg/mL and 6 µg/mL, respectively. Moreover, the IC90 (pseudovirus neutralization) in assay [8] came out at 44.1 µg/mL.

Regarding 1443_C16 (PG16) (TCN-116) (antibody), the IC50 (µg/ml), pseudovirus neutralization in assay [1] is 1.13 µg/mL; in assay [5], 3.09 µg/mL; in [6] it was greater than 50 µg/mL; in assay [7], 0.003 µg/mL; in assay [9], 0.43 µg/mL; in assay [10], greater than 50 µg/mL. Besides, the IC50 (µg/ml), pseudovirus neutralization in [11] is 0.09 µg/mL; in [12], 0.28 µg/mL; in [13] it was greater than 50 µg/mL; in assay [15] it was 5.76 µg/mL. In addition, the IC50 in assay [2] worked out at 0.09 µg/mL; in [4] it was 0.04 µg/mL. Further, the neutralization IC50 in [3] is 0.102 µg/mL; in [14], less than 0.0025 µg/mL. The substance also registered an IC90 (pseudovirus neutralization) in [8] of 0.013 µg/mL.

b12 (antibody): the IC50 (µg/ml), pseudovirus neutralization in assay [1] is 6.11 µg/mL; in assay [5] it was greater than 50 µg/mL; in assay [6], greater than 50 µg/mL; in assay [7] it was greater than 50 µg/mL; in assay [9], greater than 50 µg/mL; in [10], greater than 50 µg/mL. The IC50 (µg/ml), pseudovirus neutralization in [11] is 7.04 µg/mL; in assay [12] it was greater than 50 µg/mL; in assay [13] it was 17.6 µg/mL; in assay [15], 1.52 µg/mL. Further, the values for the IC50 in [2] and in assay [4] were 13.9 µg/mL and greater than 50 µg/mL, respectively. Moreover, the neutralization IC50 in assay [3] is 34.1 µg/mL; in [14], 0.16 µg/mL. In assay [8], this substance returned an IC90 (pseudovirus neutralization) of 1.17 µg/mL.
